Variants at the floor of the assay were thinned out.
Columns and labels:
biotinyl-Phe-oxazolone = assay: self-aminoacylation, catalytic enhancement (BFO) (fold over background); higher = more active; k-Seq, kA / k0A0; sequences stand for … in GGGAAUGGAUCCACAUCUACGAAUUC…UUCACUGCAGACUUGACGAAGCUG
Method in brief: (§1)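 Catalytic enhancement equals the median kA over the uncatalyzed rate, the latter read from the low-activity peak of a bimodal Gaussian fit. Values of kA came from fitting each sequence's fraction reacted to a pseudo-first-order model, with 1000 bootstraps. Reacted RNA was captured with streptavidin and quantified by triplicate qPCR and Illumina sequencing after 90 minutes at room temperature with 2–1250 μM biotinyl-aminoacyl-oxazolone and 0.43 μM mutagenized RNA pools bearing a 21-nt variable region.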

biotinyl-Leu-oxazolone = assay: self-aminoacylation, catalytic enhancement (BLO) (fold over background); higher = more active; k-Seq, kA / k0A0; sequences stand for … in GGGAAUGGAUCCACAUCUACGAAUUC…UUCACUGCAGACUUGACGAAGCUG
Method in brief: as §1

biotinyl-Trp-oxazolone = assay: self-aminoacylation, catalytic enhancement (BWO) (fold over background); higher = more active; k-Seq, kA / k0A0; sequences stand for … in GGGAAUGGAUCCACAUCUACGAAUUC…UUCACUGCAGACUUGACGAAGCUG
Method in brief: as §1

biotinyl-Ile-oxazolone = assay: self-aminoacylation, catalytic enhancement (BIO) (fold over background); higher = more active; k-Seq, kA / k0A0; sequences stand for … in GGGAAUGGAUCCACAUCUACGAAUUC…UUCACUGCAGACUUGACGAAGCUG
Method in brief: as §1

biotinyl-Met-oxazolone = assay: self-aminoacylation, catalytic enhancement (BMO) (fold over background); higher = more active; k-Seq, kA / k0A0; sequences stand for … in GGGAAUGGAUCCACAUCUACGAAUUC…UUCACUGCAGACUUGACGAAGCUG
Method in brief: as §1

biotinyl-Val-oxazolone = assay: self-aminoacylation, catalytic enhancement (BVO) (fold over background); higher = more active; k-Seq, kA / k0A0; sequences stand for … in GGGAAUGGAUCCACAUCUACGAAUUC…UUCACUGCAGACUUGACGAAGCUG
Method in brief: as §1

Sequence	self-aminoacylation (biotinyl-Phe-oxazolone)	self-aminoacylation (biotinyl-Leu-oxazolone)	self-aminoacylation (biotinyl-Trp-oxazolone)	self-aminoacylation (biotinyl-Ile-oxazolone)	self-aminoacylation (biotinyl-Met-oxazolone)	self-aminoacylation (biotinyl-Val-oxazolone)
UAGUCUGCUAAUAGUCGCAAG [Fam3.1 aminoacylation ribozyme variant]	32.7	1.83	9.92	2.01	2.17	1.81
UAGUUUGCUAAUAGCCGCAAG [Fam3.1 aminoacylation ribozyme variant]	2.71	1.25	1.88	1.22	0.885	1.05
UAGUUUGCUAAUAGUCCCAAG [Fam3.1 aminoacylation ribozyme variant]	2.1	0.805	1.37	1.03	0.851	0.864
UAGUUUGCUAAUAGUCGCAAA [Fam3.1 aminoacylation ribozyme variant]	1.58	1.53	2.06	1.95	1.75	1.38
UAGUUUGCUAAUAGUCGCCAG [Fam3.1 aminoacylation ribozyme variant]	1.74	1.7	1.16	1.47	1.69	1.2
UAGUUUGCUAAUAGUGGCAAG [Fam3.1 aminoacylation ribozyme variant]	1.63	0.753	0.543	0.819	0.891	0.688
UAGUUUGCUAAUAUUCGCAAG [Fam3.1 aminoacylation ribozyme variant]	1.71	1.04	1.21	1.3	1.22	1.26
UAGUUUGCUACUAGUCGCAAG [Fam3.1 aminoacylation ribozyme variant]	1.57	1.23	1.23	1.42	1.24	1.1
UAGUUUGCUUAUAGUCGCAAG [Fam3.1 aminoacylation ribozyme variant]	2.08	1.59	1.81	1.53	1.84	1.54
UAUUUUGCUAAUAGUCGCAAG [Fam3.1 aminoacylation ribozyme variant]	1.99	1.31	1.47	1.75	1.65	1.52
UCACACUCCAAGCAAUCGGUC [Fam1B.1 aminoacylation ribozyme variant]	2.4	0.792	1.44	0.885	0.825	1.13
UCACACUUCAAGAAAUCGGUC [Fam1B.1 aminoacylation ribozyme variant]	7.38	0.906	6.06	0.947	0.819	0.888
UCACACUUCAAGCAAACGGUC [Fam1B.1 aminoacylation ribozyme variant]	0.679	0.506	0.586	0.639	0.682	0.792
UCACACUUCAAGCAAUCGAUC [Fam1B.1 aminoacylation ribozyme variant]	1.49	0.468	0.732	0.589	0.501	0.808
UCACACUUCAAGCAAUCGGUA [Fam1B.1 aminoacylation ribozyme variant]	1.13	1.04	1.49	0.993	1.1	1.12
UCACACUUCAAGCAAUCGUUC [Fam1B.1 aminoacylation ribozyme variant]	1.45	0.611	0.608	0.696	0.602	0.792
UCACACUUCACGCAAUCGGUC [Fam1B.1 aminoacylation ribozyme variant]	0.767	0.873	0.908	1.03	0.81	1.21
UCACGCUUCAAGCAAUCGGUC [Fam1B.1 aminoacylation ribozyme variant]	84.1	2.46	41.6	1.32	1.56	1.7
UCCCACUUCAAGCAAUCGGUC [Fam1B.1 aminoacylation ribozyme variant]	37	1.59	22.3	1.28	1.46	1.73
UCUCACCUAGGUCAUCGGGUG [Fam2.2 aminoacylation ribozyme variant]	16.1	3.81	3.84	2.33	3.73	3.09
UCUCACUUCAAGCAAUCGGUC [Fam1B.1 aminoacylation ribozyme variant]	44.5	1.71	21.5	1.23	1.15	1.35
UGACACUUCAAGCAAUCGGUC [Fam1B.1 aminoacylation ribozyme variant]	21.5	1.89	14.5	1.84	1.33	1.37
UUACGUCAAACAAUCGGUCUG [Fam1A.1 aminoacylation ribozyme variant]	6.37	1.58	2.38	1.98	1.99	1.68
UUACUUCAAACAAUCGAUCUG [Fam1A.1 aminoacylation ribozyme variant]	1.8	0.824	0.866	0.852	0.711	0.719
UUACUUCAAACAAUCGGGCUG [Fam1A.1 aminoacylation ribozyme variant]	8.04	2.22	7.54	1.76	1.93	1.66
UUACUUCAAACAAUCGGUUUG [Fam1A.1 aminoacylation ribozyme variant]	31.5	1.86	20.3	1.59	1.48	1.24

Source: the supplement of paper PMC9233669
